In assay [1] the target is T1, his-tagged TSLPR (TSLPR-HIS) (UniProt Q9HC73 23-231, limits assumed).
T1 construct: Soluble protein used in the ForteBio assay; not shown: His tag
T1 sequence (looked up): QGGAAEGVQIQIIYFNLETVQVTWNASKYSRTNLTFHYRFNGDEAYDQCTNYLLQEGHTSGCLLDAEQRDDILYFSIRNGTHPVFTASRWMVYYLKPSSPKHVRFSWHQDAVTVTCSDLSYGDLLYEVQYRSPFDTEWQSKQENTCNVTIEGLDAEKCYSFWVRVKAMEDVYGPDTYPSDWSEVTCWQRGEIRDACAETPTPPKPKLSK
The experiment in a line: BLI (ForteBio AHQ sensor), antibody captured, TSLPR-HIS in solution. Here is the method:
(§1) TSLPR antibody clones whose VH and VL sequences are disclosed in Tables 9 and 10 were bound to the AHQ sensor and his-tagged TSLPR (TSLPR-HIS) was provided in solution. […] The anti-TSLPR antibodies were serially diluted with an HBS-EP solution (GE Healthcare), and 100 μL of the solution was added to the flow path at a flow rate of […].
(BLI is a label-free optical method that tracks binding on a fibre tip over time.)

For assay [2], the target named is T1, his-tagged TSLPR (TSLPR-HIS). The assay can be described thus: BLI (ForteBio AHQ sensor), antibody captured, TSLPR-HIS and TSLP in solution; competitor TSLP. Here is the method: as §1

Residue numbers refer to the chain shown, from its start.

B1: TSLPR antibody clone 2D11 (antibody, V domains shown)
VH: QVQLQESGPGLVKPSETLSLTCAVSGYSISSGYYWGWIRQPPGKGLEWIGRIYHSGTTSYNPSLKRRVTISVDTSKNQFSLKLSSVTATDTAVYYCARNWGGNWFDPWGQGTLVTVSS
VL: DIQMTQSPSSLSASVGDRVTITCRASQGISNYLAWYQQKPGKVPKLLIYAASTLQSGVPSRFSGSGSGTDFTLTISSLQPEDVATYYCQKYNSARTFGQGTKVDIKR
notes: Captured on an anti-human IgG sensor
Broadly, the Kd is the equilibrium constant for the complex coming apart. Lower therefore signals higher affinity. One may read the koff as the rate constant with which the complex falls apart. A lower koff goes with slow dissociation. By kon is commonly meant the rate constant with which the complex forms. In assay [1], B1 showed a Kd of 5.29 nM, a koff of 0.000881 s⁻¹ and an association rate constant (kon) of 167000 M⁻¹ s⁻¹. Further, the “TSLPR-TSLP Response” value in assay [2] came to 83.2%.

B2: TSLPR antibody clone 1F6 (antibody, V domains shown)
VH: QVQLVQSGAEVRKPGSSVKVSCKASGGTVSSYAISWVRQAPGQGLEWMGGITPIFGTAKYAQKFQGRVTITADKSTSTAYMELSSLRSEDTAVYYCARGGIAAAGTFDYWGQGTLVTVSS
VL: not shown
notes: as for B1
Consider B2, for which, in assay [1], binding was put at a Kd of 3.9 nM, the koff was found to be 0.00137 s⁻¹ and the kon worked out at 351000 M⁻¹ s⁻¹.

B3: TSLPR antibody clone 2H4 (antibody, V domains shown)
VH: B2 VH with R12K, V29F, S30N, A79T, G99P, A102I, A103V, T106P
VL: not shown
notes: as for B1
Regarding B3, in assay [1], binding was put at a Kd of 5.91 nM, the off-rate constant (koff) turned out to be 0.0015 s⁻¹ and the on-rate (kon) came to 254000 M⁻¹ s⁻¹. For the same molecule, the “TSLPR-TSLP Response” value in assay [2] was found to be 32.2%.

B4: TSLPR antibody clone 10C4 (antibody, V domains shown)
VH: QVQLQESGPGLVKPSGTLSLTCAVSGGSINSNNWWSWVRQPPGKGLEWIGDIYHSGSTNYNPSLKSRVTISVDKSKSQFSLKLSSVTAADTAVYYCARRRWLQHFDFWGQGTLVTVSS
VL: DIQMTQSPSTLSASVGDRVTITCRASQSITNWLAWYQQKPGKAPKLLIYKASSLESGVPSRFSGSGSGTEFTLAISSLQPDDFATYYCQQYNIYPLAFGGGTKVEIKR
notes: as for B1
In assay [1], B4 showed a Kd of 4.86 nM, a koff of 0.000334 s⁻¹ and a kon of 68800 M⁻¹ s⁻¹.

B5: TSLPR antibody clone 1A10 (antibody, V domains shown)
VH: QVQLQESGPGLVKPSETLSLTCNVSGGSISTYYWNWLRQPPGKGLEWIGSIYYSGTTNYNPSLKSRVTISVDTSKHQFSLRLTSVTAADTAVYFCARDQGYYHGSGSYFFDYWGQGTLVTVSS
VL: EIVMTQSPATLSVSPGERATLSCRASQSVSSHLAWYQQKPGQAPRLLIYGASTRATGIPARFSGSGSGTEFTLTISSLQSEDFAIFYCQQYNNWPLTFGGGTKVDIKR
notes: as for B1
In assay [1], B5 showed a Kd of 8.9 nM, a koff of 0.00119 s⁻¹ and an association rate constant (kon) of 133000 M⁻¹ s⁻¹.

B6: TSLPR antibody clone 2E4 (antibody, V domains shown)
VH: EVQLLESGGGLVQPGGSLRLSCAASGFTFSSYAMNWVRQAPGKGLEWVSGISGSGGSTYYADSVKGRFTFSRDNSKNTLYLQMISLRAEDTAVYYCAKDQRITMVRGVIGAFDIWGQGTMVTVSS
VL: DIQMTQSPSTLSASVGDRVTITCRASQSISSWLAWYQQKPGKAPKLLIYKASSLESGVPSRFSGSGSGTEFTLTISSLQPDDFATYYCQQYVGLITFGQGTRLEIKR
notes: as for B1
Turning to B6, in assay [1], the affinity, expressed as Kd, was 1.01 nM; the koff amounted to 0.000294 s⁻¹; the on-rate (kon) came to 292000 M⁻¹ s⁻¹.

B7: TSLPR antibody clone 2H1 (antibody, V domains shown)
VH: EVQLLESGGGLVQPGGSLSLSCAASGFTFSRYGMHWVRQAPGKGLEWVSAISASGGSTYYADSVKGRFTISRDNSKNTLYLQMNSLRAEDTAVYYCAKDKWGYAFDIWGQGTTVTVSS
VL: B6 VL with S31N, Q89L, V92N, G93H, L94Y, I95S, R102K, L103V, E104D
notes: as for B1
B7: in assay [2], the “TSLPR-TSLP Response” value amounted to 80%.

B8: TSLPR antibody clone 2A4 (antibody, V domains shown)
VH: QVQLVQSGAEVKKPGASVKVSCKASGYTFTGYYMHWVRQAPGQGLEWMGRFNLHSGVTNYAQKFQGRVTMTRDTSISTVYMDLSRLRSDDTAVYYCARERQWLVQDYFDYWGQGTLVTVSS
VL: DIQMTQSPSSLSASVGDRVTITCRASQSISNYLNWYQQKPGKAPNLLICAASSLQSGVPSRFSGSGSGTDFTLTISSLQPEDFATYYCQQSYSIPPTFGQGTKVDIKR
notes: as for B1
In assay [1], B8 returned a Kd of 3.07 nM, a koff of 0.000326 s⁻¹ and a kon of 106000 M⁻¹ s⁻¹. In addition, the “TSLPR-TSLP Response” value in assay [2] was -3.7%.

B9: TSLPR antibody clone 1D10 (antibody, V domains shown)
VH: QVQLQESGPGLVKPSETLSLTCTVSGGSISRYYWSWIRQPPGKGLEWIGYIFYNKNTNYNPSLKSRVTISVDTSKNQFSLKLSSVTAADTAVYYCARYIAAIYTDLYYFDYWGQGTLVTVSS
VL: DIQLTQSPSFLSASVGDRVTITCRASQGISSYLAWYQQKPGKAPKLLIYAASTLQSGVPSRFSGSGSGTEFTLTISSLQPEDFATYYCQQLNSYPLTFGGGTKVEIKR
notes: as for B1
For B9, in assay [1], the Kd is under 0.001 nM, the koff was under 1e-07 s⁻¹ and the kon worked out at 16200 M⁻¹ s⁻¹.

B10: TSLPR antibody clone 2F1 (antibody, V domains shown)
VH: B9 VH
VL: DIQLTQSPSFLSASVGDRVTITCRASQGISSYLAWYQQKPGKAPKLLIYAASTLQSGVPSRFSGSGSGTEFTLTISSLQPEDFATYHCQQLNSYPLTFGGMTKVEIKR
notes: as for B1
In assay [1], B10 had a Kd of 4.33 nM, a koff of 0.000332 s⁻¹ and an on-rate (kon) of 76800 M⁻¹ s⁻¹. For the same molecule, the “TSLPR-TSLP Response” value in assay [2] is 204%.

B11: TSLPR antibody clone 2B2 (antibody, V domains shown)
VH: QVQLVESGGGVVQPGRSLRLSCAASGFTFSNYGMHWVRQAPGKGLEWVSFIWYDGSHRYYADSVKGRFTISRDNSKNTLYLQMNSLRAEDTAVYYCAKGRGGLDWYFDLWGRGTLVTVSS
VL: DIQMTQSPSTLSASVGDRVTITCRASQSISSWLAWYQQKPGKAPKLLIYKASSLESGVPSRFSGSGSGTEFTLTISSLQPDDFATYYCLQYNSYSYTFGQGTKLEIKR
notes: as for B1
With B11, in assay [1], binding was characterised by a dissociation constant (Kd) of 8.07 nM, the koff was determined as 0.00324 s⁻¹ and the kon came to 401000 M⁻¹ s⁻¹. Further, in assay [2], the “TSLPR-TSLP Response” value came out at 21.2%.

B12: TSLPR antibody clone 1G3 (antibody, V domains shown)
VH: QVQLVESGGGVVQPGRSLRLSCAASGFTFSSYGMHWVRQTPGKGLEWVAVMWYDGRNKYYADSVKGRFTISRDNSKNTLYLQMNSLRAEDTAVYYCARDRIMVRGVIIPHVFDIWGQGTMVTVSS
VL: EIVMTQSPATLSVSPGERATLSCRASQSVSSNLGWYQQKPGQAPRLLIYGASTRATGIPARFSGSGSGTEFILTISSLQSEDFAVYYCQEYNNWWTFGQGTKVDIKR
notes: as for B1
B12: in assay [1], the Kd amounted to 11.7 nM, the koff is 0.0021 s⁻¹ and the association rate constant (kon) turned out to be 179000 M⁻¹ s⁻¹.

B13: TSLPR antibody clone 3E5 (antibody, V domains shown)
VH: EVQLLESGGGLVQPGGSLRLSCAASGFTFSSNAMSWVRQAPGKGLEWVSAIRGRGGSTYYADSVKGRFTISRDNSKNTLYLQLNSLRAEDTAVYYCAKDRIVVAGPFDHWGQGTLVTVSS
VL: B10 VL with H87Y, S93R, M101G, E105D
notes: as for B1
For the molecule B13, in assay [1], the affinity, expressed as Kd, was 6.81 nM; the koff was determined as 0.00139 s⁻¹; the on-rate (kon) is 204000 M⁻¹ s⁻¹.

B14: TSLPR antibody clone 2E6 (antibody, V domains shown)
VH: EVQLLESGGNLVQPGGSLRLSCAASGFTFGSYVMTWGRQAPGKGLEWVSTISASGGSTYYADSVKGRFTISRDNSKNTLYLQMNSLRAEDTAVYYCAKDKWGKGFDIWGQGTMVTVSS
VL: B10 VL with H87Y, L96P, M101G
notes: as for B1
Take B14: in assay [1], the Kd was found to be 7.63 nM, the off-rate constant (koff) amounted to 0.0014 s⁻¹ and the on-rate constant (kon) came out at 184000 M⁻¹ s⁻¹. In assay [2], the “TSLPR-TSLP Response” value turned out to be 82.6%.

B15: TSLPR antibody clone 3D8 (antibody, V domains shown)
VH: QVQLVESGGGVVQPGRSLRLSCAASGFTFSSYVMHWVRQAPGKGLEWVAVIWYAGNKKYYADSVKGRFTISRDNSNNTLYLQMNSLRAEDTAVYYCAREYSSSWHYYGMDVWGQGTTVTVSS
VL: B10 VL with H87Y, M101G, E105D
notes: as for B1
Regarding B15, in assay [1], binding was put at a Kd of 1.16 nM, the off-rate (koff) worked out at 0.000134 s⁻¹ and the on-rate constant (kon) is 116000 M⁻¹ s⁻¹.

B16: TSLPR antibody clone 2F5 (antibody, V domains shown)
VH: EVQLVESGGGLVQSGGSLRFSCAASGFTFSSHPMNWVRQVPGKGLEWVSSISGSGGSTYYADFVKGRFTISRDNSKNTLYLQMNSLRAEDTAVYYCAKGHNSGWKYWGQGTLVTVSS
VL: B10 VL with H87Y, L96P, G100Q, M101G, E105D
notes: as for B1
For B16, in assay [1], the Kd is 1.28 nM, the off-rate constant (koff) worked out at 0.00045 s⁻¹ and the on-rate (kon) is 351000 M⁻¹ s⁻¹. For the same molecule, the “TSLPR-TSLP Response” value in assay [2] stood at 120%.

B17: TSLPR antibody clone 1B9 (antibody, V domains shown)
VH: QVQLQESGPGLVKPSGTLSLTCAVSGGSIRSSNWWSWVRQPPGKGLEWIGEIYHGGTTNNNPSLKSRVTISVDQSKSQFSLKLSSVTAADTAVYYCARHRYSSGLDYWGQGTLVTVSS
VL: DIQMTQTPSTLSASVGDRVTITCRGSHSISNWLGWYRHKPRKAPNLLIYKASSLKSGVPSRFSGSGSGTEFTLTITSLQPDDFATYYCQQYNHYSTFGQGTKVDIKR
notes: as for B1
In assay [1], B17 yielded a Kd of 2.33 nM, a koff of 0.00127 s⁻¹ and an on-rate constant (kon) of 545000 M⁻¹ s⁻¹.

B18: TSLPR antibody clone 2H8 (antibody, V domains shown)
VH: EVQLLESGGGLEQPGGSLRLSCAASGFTFSSHAMNWVRQAPGKGLEWVSAISGSGGSTYYADSVKGRFTISRDNSKNTLCLQMNSLRAEDTAVYYCARGHNSGWPYWGQGTLVTVSS
VL: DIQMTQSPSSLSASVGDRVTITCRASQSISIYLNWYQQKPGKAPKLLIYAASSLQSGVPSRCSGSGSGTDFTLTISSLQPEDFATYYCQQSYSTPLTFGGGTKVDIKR
notes: as for B1
In assay [1], B18 came in with a Kd of 0.806 nM, a dissociation rate constant (koff) of 0.000191 s⁻¹ and an on-rate constant (kon) of 237000 M⁻¹ s⁻¹.

Values taken from patent US20240360233A1 (University of Texas, published 2024).
